The values that follow come from patent US20180009871A1 (INTARCIA THERAPEUTICS, published 2018).

Where no end group is shown, it is not given here. [ ]: non-standard residue; d: D form. Aib = CC(C)(N)C(=O)O

The target in assay [1] is human GLP-1 receptor (GLP-1R) (human, UniProt P43220 24-463). Briefly: cell-based or functional assay.
Assay [2] addresses human glucagon receptor (GCGR) (human, UniProt P47871 26-477). Briefly: cell-based or functional assay.

Sequence of human GLP-1 receptor (GLP-1R) (P43220 24-463): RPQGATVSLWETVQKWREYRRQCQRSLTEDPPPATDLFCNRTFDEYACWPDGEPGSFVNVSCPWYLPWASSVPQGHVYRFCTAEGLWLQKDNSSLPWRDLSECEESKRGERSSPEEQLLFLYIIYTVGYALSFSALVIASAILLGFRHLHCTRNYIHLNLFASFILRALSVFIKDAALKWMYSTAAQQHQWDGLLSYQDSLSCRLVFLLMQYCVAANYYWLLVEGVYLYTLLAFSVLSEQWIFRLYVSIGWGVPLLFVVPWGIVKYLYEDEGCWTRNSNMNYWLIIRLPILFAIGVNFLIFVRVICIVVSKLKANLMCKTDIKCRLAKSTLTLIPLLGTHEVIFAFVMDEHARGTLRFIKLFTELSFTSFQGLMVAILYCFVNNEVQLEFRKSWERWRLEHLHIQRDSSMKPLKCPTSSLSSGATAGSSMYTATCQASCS

B1: Compound A15 (peptide)
peptide: YSHGTFTSDYSKYLD[Aib]SRAQEFV[Aib]WLEDEPSSGAPPPS-OH
modifications: N-terminus assumed
SMILES: CC(C)C[C@H](NC(=O)[C@H](Cc1ccc(O)cc1)NC(=O)[C@H](CCCCN)NC(=O)[C@H](CO)NC(=O)[C@H](Cc1ccc(O)cc1)NC(=O)[C@H](CC(=O)O)NC(=O)[C@H](CO)NC(=O)[C@@H](NC(=O)[C@H](Cc1ccccc1)NC(=O)[C@@H](NC(=O)CNC(=O)[C@H](Cc1c[nH]cn1)NC(=O)[C@H](CO)NC(=O)[C@@H](N)Cc1ccc(O)cc1)[C@@H](C)O)[C@@H](C)O)C(=O)N[C@@H](CC(=O)O)C(=O)NC(C)(C)C(=O)N[C@@H](CO)C(=O)N[C@@H](CCCNC(=N)N)C(=O)N[C@@H](C)C(=O)N[C@@H](CCC(N)=O)C(=O)N[C@@H](CCC(=O)O)C(=O)N[C@@H](Cc1ccccc1)C(=O)N[C@H](C(=O)NC(C)(C)C(=O)N[C@@H](Cc1c[nH]c2ccccc12)C(=O)N[C@@H](CC(C)C)C(=O)N[C@@H](CCC(=O)O)C(=O)N[C@@H](CC(=O)O)C(=O)N[C@@H](CCC(=O)O)C(=O)N1CCC[C@H]1C(=O)N[C@@H](CO)C(=O)N[C@@H](CO)C(=O)NCC(=O)N[C@@H](C)C(=O)N1CCC[C@H]1C(=O)N1CCC[C@H]1C(=O)N1CCC[C@H]1C(=O)N[C@@H](CO)C(=O)O)C(C)C
For B1, the “hGLP1 pEC50 (cAMP)” value in assay [1] is < 9 pEC50. The “hGCGR pEC50 (cAMP)” value in assay [2] stood at 11.4 pEC50.

B2: Compound A21 (peptide)
peptide: YSHGTFTSDYSKYLD[Aib]KRAQEFV[Aib]WLEDEPSSGEPPPS-OH
modifications: N-terminus assumed
SMILES: CC(C)C[C@H](NC(=O)[C@H](Cc1ccc(O)cc1)NC(=O)[C@H](CCCCN)NC(=O)[C@H](CO)NC(=O)[C@H](Cc1ccc(O)cc1)NC(=O)[C@H](CC(=O)O)NC(=O)[C@H](CO)NC(=O)[C@@H](NC(=O)[C@H](Cc1ccccc1)NC(=O)[C@@H](NC(=O)CNC(=O)[C@H](Cc1c[nH]cn1)NC(=O)[C@H](CO)NC(=O)[C@@H](N)Cc1ccc(O)cc1)[C@@H](C)O)[C@@H](C)O)C(=O)N[C@@H](CC(=O)O)C(=O)NC(C)(C)C(=O)N[C@@H](CCCCN)C(=O)N[C@@H](CCCNC(=N)N)C(=O)N[C@@H](C)C(=O)N[C@@H](CCC(N)=O)C(=O)N[C@@H](CCC(=O)O)C(=O)N[C@@H](Cc1ccccc1)C(=O)N[C@H](C(=O)NC(C)(C)C(=O)N[C@@H](Cc1c[nH]c2ccccc12)C(=O)N[C@@H](CC(C)C)C(=O)N[C@@H](CCC(=O)O)C(=O)N[C@@H](CC(=O)O)C(=O)N[C@@H](CCC(=O)O)C(=O)N1CCC[C@H]1C(=O)N[C@@H](CO)C(=O)N[C@@H](CO)C(=O)NCC(=O)N[C@@H](CCC(=O)O)C(=O)N1CCC[C@H]1C(=O)N1CCC[C@H]1C(=O)N1CCC[C@H]1C(=O)N[C@@H](CO)C(=O)O)C(C)C
In the case of B2, in assay [1], the “hGLP1 pEC50 (cAMP)” value is < 9 pEC50. In addition, in assay [2], the “hGCGR pEC50 (cAMP)” value was found to be 11.1 pEC50.

B3: Compound A17 (peptide)
peptide: YSHGTFTSDYSKYLD[Aib]ERAQEFV[Aib]WLEDEPSSGAPPPS-OH
modifications: N-terminus assumed
SMILES: CC(C)C[C@H](NC(=O)[C@H](Cc1ccc(O)cc1)NC(=O)[C@H](CCCCN)NC(=O)[C@H](CO)NC(=O)[C@H](Cc1ccc(O)cc1)NC(=O)[C@H](CC(=O)O)NC(=O)[C@H](CO)NC(=O)[C@@H](NC(=O)[C@H](Cc1ccccc1)NC(=O)[C@@H](NC(=O)CNC(=O)[C@H](Cc1c[nH]cn1)NC(=O)[C@H](CO)NC(=O)[C@@H](N)Cc1ccc(O)cc1)[C@@H](C)O)[C@@H](C)O)C(=O)N[C@@H](CC(=O)O)C(=O)NC(C)(C)C(=O)N[C@@H](CCC(=O)O)C(=O)N[C@@H](CCCNC(=N)N)C(=O)N[C@@H](C)C(=O)N[C@@H](CCC(N)=O)C(=O)N[C@@H](CCC(=O)O)C(=O)N[C@@H](Cc1ccccc1)C(=O)N[C@H](C(=O)NC(C)(C)C(=O)N[C@@H](Cc1c[nH]c2ccccc12)C(=O)N[C@@H](CC(C)C)C(=O)N[C@@H](CCC(=O)O)C(=O)N[C@@H](CC(=O)O)C(=O)N[C@@H](CCC(=O)O)C(=O)N1CCC[C@H]1C(=O)N[C@@H](CO)C(=O)N[C@@H](CO)C(=O)NCC(=O)N[C@@H](C)C(=O)N1CCC[C@H]1C(=O)N1CCC[C@H]1C(=O)N1CCC[C@H]1C(=O)N[C@@H](CO)C(=O)O)C(C)C
Turning to B3, the “hGLP1 pEC50 (cAMP)” value in assay [1] is < 9 pEC50. Moreover, the “hGCGR pEC50 (cAMP)” value in assay [2] is 11.1 pEC50.

B4: Compound A16 (peptide)
peptide: YSHGTFTSDYSKYLD[Aib]TRAQEFV[Aib]WLEDEPSSGAPPPS-OH
modifications: N-terminus assumed
SMILES: CC(C)C[C@H](NC(=O)[C@H](Cc1ccc(O)cc1)NC(=O)[C@H](CCCCN)NC(=O)[C@H](CO)NC(=O)[C@H](Cc1ccc(O)cc1)NC(=O)[C@H](CC(=O)O)NC(=O)[C@H](CO)NC(=O)[C@@H](NC(=O)[C@H](Cc1ccccc1)NC(=O)[C@@H](NC(=O)CNC(=O)[C@H](Cc1c[nH]cn1)NC(=O)[C@H](CO)NC(=O)[C@@H](N)Cc1ccc(O)cc1)[C@@H](C)O)[C@@H](C)O)C(=O)N[C@@H](CC(=O)O)C(=O)NC(C)(C)C(=O)N[C@H](C(=O)N[C@@H](CCCNC(=N)N)C(=O)N[C@@H](C)C(=O)N[C@@H](CCC(N)=O)C(=O)N[C@@H](CCC(=O)O)C(=O)N[C@@H](Cc1ccccc1)C(=O)N[C@H](C(=O)NC(C)(C)C(=O)N[C@@H](Cc1c[nH]c2ccccc12)C(=O)N[C@@H](CC(C)C)C(=O)N[C@@H](CCC(=O)O)C(=O)N[C@@H](CC(=O)O)C(=O)N[C@@H](CCC(=O)O)C(=O)N1CCC[C@H]1C(=O)N[C@@H](CO)C(=O)N[C@@H](CO)C(=O)NCC(=O)N[C@@H](C)C(=O)N1CCC[C@H]1C(=O)N1CCC[C@H]1C(=O)N1CCC[C@H]1C(=O)N[C@@H](CO)C(=O)O)C(C)C)[C@@H](C)O
In the case of B4, the “hGLP1 pEC50 (cAMP)” value in assay [1] is < 9 pEC50. Further, the “hGCGR pEC50 (cAMP)” value in assay [2] stood at 11.9 pEC50.

B5: Compound A18 (peptide)
peptide: YSHGTFTSDYSKWLD[Aib]ARAQEFV[Aib]WLEDEPSSGAPPPS-OH
modifications: N-terminus assumed
SMILES: CC(C)C[C@H](NC(=O)[C@H](Cc1c[nH]c2ccccc12)NC(=O)[C@H](CCCCN)NC(=O)[C@H](CO)NC(=O)[C@H](Cc1ccc(O)cc1)NC(=O)[C@H](CC(=O)O)NC(=O)[C@H](CO)NC(=O)[C@@H](NC(=O)[C@H](Cc1ccccc1)NC(=O)[C@@H](NC(=O)CNC(=O)[C@H](Cc1c[nH]cn1)NC(=O)[C@H](CO)NC(=O)[C@@H](N)Cc1ccc(O)cc1)[C@@H](C)O)[C@@H](C)O)C(=O)N[C@@H](CC(=O)O)C(=O)NC(C)(C)C(=O)N[C@@H](C)C(=O)N[C@@H](CCCNC(=N)N)C(=O)N[C@@H](C)C(=O)N[C@@H](CCC(N)=O)C(=O)N[C@@H](CCC(=O)O)C(=O)N[C@@H](Cc1ccccc1)C(=O)N[C@H](C(=O)NC(C)(C)C(=O)N[C@@H](Cc1c[nH]c2ccccc12)C(=O)N[C@@H](CC(C)C)C(=O)N[C@@H](CCC(=O)O)C(=O)N[C@@H](CC(=O)O)C(=O)N[C@@H](CCC(=O)O)C(=O)N1CCC[C@H]1C(=O)N[C@@H](CO)C(=O)N[C@@H](CO)C(=O)NCC(=O)N[C@@H](C)C(=O)N1CCC[C@H]1C(=O)N1CCC[C@H]1C(=O)N1CCC[C@H]1C(=O)N[C@@H](CO)C(=O)O)C(C)C
Regarding B5, in assay [1], the “hGLP1 pEC50 (cAMP)” value was < 9 pEC50. Further, in assay [2], the “hGCGR pEC50 (cAMP)” value came to 12.4 pEC50.

B6: Compound A20 (peptide)
peptide: YSHGTFTSDYSKYLD[Aib]KRAQEFV[Aib]WLEDEPSSGKPPPS-OH
modifications: N-terminus assumed
SMILES: CC(C)C[C@H](NC(=O)[C@H](Cc1ccc(O)cc1)NC(=O)[C@H](CCCCN)NC(=O)[C@H](CO)NC(=O)[C@H](Cc1ccc(O)cc1)NC(=O)[C@H](CC(=O)O)NC(=O)[C@H](CO)NC(=O)[C@@H](NC(=O)[C@H](Cc1ccccc1)NC(=O)[C@@H](NC(=O)CNC(=O)[C@H](Cc1c[nH]cn1)NC(=O)[C@H](CO)NC(=O)[C@@H](N)Cc1ccc(O)cc1)[C@@H](C)O)[C@@H](C)O)C(=O)N[C@@H](CC(=O)O)C(=O)NC(C)(C)C(=O)N[C@@H](CCCCN)C(=O)N[C@@H](CCCNC(=N)N)C(=O)N[C@@H](C)C(=O)N[C@@H](CCC(N)=O)C(=O)N[C@@H](CCC(=O)O)C(=O)N[C@@H](Cc1ccccc1)C(=O)N[C@H](C(=O)NC(C)(C)C(=O)N[C@@H](Cc1c[nH]c2ccccc12)C(=O)N[C@@H](CC(C)C)C(=O)N[C@@H](CCC(=O)O)C(=O)N[C@@H](CC(=O)O)C(=O)N[C@@H](CCC(=O)O)C(=O)N1CCC[C@H]1C(=O)N[C@@H](CO)C(=O)N[C@@H](CO)C(=O)NCC(=O)N[C@@H](CCCCN)C(=O)N1CCC[C@H]1C(=O)N1CCC[C@H]1C(=O)N1CCC[C@H]1C(=O)N[C@@H](CO)C(=O)O)C(C)C
For the molecule B6, the “hGLP1 pEC50 (cAMP)” value in assay [1] was < 9 pEC50. For the same molecule, in assay [2], the “hGCGR pEC50 (cAMP)” value was 13.3 pEC50.

B7: Compound A19 (peptide)
peptide: YSHGTFTSDYSKWLD[Aib]SRAQEFV[Aib]WLEDEPSSGAPPPS-OH
modifications: N-terminus assumed
SMILES: CC(C)C[C@H](NC(=O)[C@H](Cc1c[nH]c2ccccc12)NC(=O)[C@H](CCCCN)NC(=O)[C@H](CO)NC(=O)[C@H](Cc1ccc(O)cc1)NC(=O)[C@H](CC(=O)O)NC(=O)[C@H](CO)NC(=O)[C@@H](NC(=O)[C@H](Cc1ccccc1)NC(=O)[C@@H](NC(=O)CNC(=O)[C@H](Cc1c[nH]cn1)NC(=O)[C@H](CO)NC(=O)[C@@H](N)Cc1ccc(O)cc1)[C@@H](C)O)[C@@H](C)O)C(=O)N[C@@H](CC(=O)O)C(=O)NC(C)(C)C(=O)N[C@@H](CO)C(=O)N[C@@H](CCCNC(=N)N)C(=O)N[C@@H](C)C(=O)N[C@@H](CCC(N)=O)C(=O)N[C@@H](CCC(=O)O)C(=O)N[C@@H](Cc1ccccc1)C(=O)N[C@H](C(=O)NC(C)(C)C(=O)N[C@@H](Cc1c[nH]c2ccccc12)C(=O)N[C@@H](CC(C)C)C(=O)N[C@@H](CCC(=O)O)C(=O)N[C@@H](CC(=O)O)C(=O)N[C@@H](CCC(=O)O)C(=O)N1CCC[C@H]1C(=O)N[C@@H](CO)C(=O)N[C@@H](CO)C(=O)NCC(=O)N[C@@H](C)C(=O)N1CCC[C@H]1C(=O)N1CCC[C@H]1C(=O)N1CCC[C@H]1C(=O)N[C@@H](CO)C(=O)O)C(C)C
As to B7, in assay [1], the “hGLP1 pEC50 (cAMP)” value was < 9 pEC50. For the same molecule, the “hGCGR pEC50 (cAMP)” value in assay [2] is 11 pEC50.
